Source: article doi:10.1101/2023.05.08.539884 (bioRxiv, 2023)
“And” between values parts separate entries of the source, which are not always exact repeats. Equal entries are not always repeated.

Target: UBE2A (UniProt P49459 1-152)
Assay: ITC

B1: UBR4_(4730-5183) (domain or fragment)
chain: AIQHPGTQVLIGTDSIPNLHKLEQVSSDEGIGTLAENLLEALREHPDVNKKIDAARRETRAEKKRMAMAMRQKALGTLGMTTNEKGQVVTKTALLKQMEELIEEPGLTCCICREGYKFQPTKVLGIYTFTKRVALEEMENKPRKQQGYSTVSHFNIVHYDCHLAAVRLARGREEWESAALQNANTKCNGLLPVWGPHVPESAFATCLARHNTYLQECTGQREPTYQLNIHDIKLLFLRFAMEQSFSADTGGGGRESNIHLIPYIIHTVLYVLNTTRATSREEKNLQGFLEQPKEKWVESAFEVDGPYYFTVLALHILPPEQWRATRVEILRRLLVTSQARAVAPGGATRLTDKAVKDYSAYRSSLLFWALVDLIYNMFKKVPTSNTEGGWSCSLAEYIRHNDMPIYEAADKALKTFQEEFMPVETFSEFLDVAGLLSEITDPESFLKDLLNSVP
Q: How did the Kd turn out when B1 was run?
A: 2.8 µM and 2.58 µM
